Where no end group is shown, it is not given here. The star is where a group is joined. Biotin = O=C1N[C@H]2[C@H](CS[C@H]2CCCCC(=O)*)N1; Myristoyl = CCCCCCCCCCCCCC(=O)*

Our source for the Kd values is publication PMC12591191 (2025).

For assay [1], the target named is T1, SIRT6 R65A (human, UniProt Q8N6T7 1-355, R65A). Briefly: BLI. In general terms: Biolayer interferometry detects binding as a change in optical thickness at a sensor tip.
In assay [2] the target is T2, SIRT6 S56Y (human, UniProt Q8N6T7 1-355, S56Y). Briefly: BLI.
T2 sequence (Q8N6T7 whole entry S56Y): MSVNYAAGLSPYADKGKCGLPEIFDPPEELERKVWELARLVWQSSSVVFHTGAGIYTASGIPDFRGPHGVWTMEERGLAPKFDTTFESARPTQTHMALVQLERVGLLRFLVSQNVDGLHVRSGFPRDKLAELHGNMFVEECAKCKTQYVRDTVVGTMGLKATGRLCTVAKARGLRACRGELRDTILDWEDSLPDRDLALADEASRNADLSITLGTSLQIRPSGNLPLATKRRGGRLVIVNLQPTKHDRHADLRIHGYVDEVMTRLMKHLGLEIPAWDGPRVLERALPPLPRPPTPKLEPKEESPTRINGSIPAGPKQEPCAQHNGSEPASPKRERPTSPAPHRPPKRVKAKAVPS
Another assay concerns the target SIRT6 G60A (Homo sapiens). The experiment in a line: BLI.
Assay [3] deals with T3, SIRT6 H133Y (human, UniProt Q8N6T7 1-355, H133Y). Briefly: BLI.
T3 sequence (Q8N6T7 whole entry H133Y): as the sequence (Q8N6T7 whole entry S56Y) above, with Y56S, H133Y counted along it
The target of assay [4] is T1, SIRT6 R65A. The experiment in a line: BLI; Mg2+.
Assay [5] deals with T2, SIRT6 S56Y. Briefly: BLI; Mg2+.
Assay [6] has as its target T3, SIRT6 H133Y. The experiment in a line: BLI; Mg2+.

T1 sequence (Q8N6T7 whole entry R65A): as the sequence (Q8N6T7 whole entry S56Y) above, with Y56S, R65A counted along it
SIRT6 G60A (Homo sapiens), sequence (chain, as listed by the source G60A): as the sequence (Q8N6T7 whole entry S56Y) above, with Y56S, G60A counted along it

For Biotin-KQTARK(Myristoyl)STGGKARRRRR [B-H3K9^Myr-5R (biotin-KQTARK^MyrSTGGKARRRRR)], the dissociation constant Kd (in general, the equilibrium constant for the complex coming apart) with SIRT6 R65A [1] stood at 2 µM; with SIRT6 S56Y [2], 1.6 µM; with SIRT6 G60A it was 1.3 µM; with SIRT6 H133Y [3] it was 3.2 µM; with SIRT6 R65A [4] it was 1.8 µM; with SIRT6 S56Y [5] it was 0.61 µM. This molecule also had a dissociation constant (Kd) with SIRT6 H133Y [6] of 0.68 µM.
